We go through 3 molecules from US20260125469A1 (Hoffmann-La Roche, published 2026).

Assay [1] deals with T1, human CD19 on cells (Nalm-6, Z-138) (human, UniProt P15391 20-556).
T1 sequence (looked up): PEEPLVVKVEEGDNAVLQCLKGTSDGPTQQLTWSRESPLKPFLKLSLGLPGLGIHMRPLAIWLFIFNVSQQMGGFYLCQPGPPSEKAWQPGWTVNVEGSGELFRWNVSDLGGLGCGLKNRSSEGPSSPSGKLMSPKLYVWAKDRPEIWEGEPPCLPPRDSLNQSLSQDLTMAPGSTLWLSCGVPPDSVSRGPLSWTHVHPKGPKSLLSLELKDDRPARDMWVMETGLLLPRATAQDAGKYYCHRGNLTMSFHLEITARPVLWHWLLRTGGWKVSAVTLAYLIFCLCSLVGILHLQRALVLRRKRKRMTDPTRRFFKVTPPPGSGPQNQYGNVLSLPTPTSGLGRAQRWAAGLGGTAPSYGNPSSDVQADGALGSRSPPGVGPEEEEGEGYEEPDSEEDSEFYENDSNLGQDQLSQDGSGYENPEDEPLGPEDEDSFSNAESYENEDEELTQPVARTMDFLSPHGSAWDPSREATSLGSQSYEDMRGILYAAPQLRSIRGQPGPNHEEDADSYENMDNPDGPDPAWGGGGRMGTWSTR
The assay can be described thus: cell-based or functional assay.

For assay [2], the target named is T2, human CD3 on cells (CD3ε) (human, UniProt P07766 23-207).
T2 construct: CD3 complex as it stands on Jurkat cells or primary T cells; also called CD3-expressing Jurkat cells; CD3-expressing T cells
T2 sequence (P07766 23-207 limits assumed): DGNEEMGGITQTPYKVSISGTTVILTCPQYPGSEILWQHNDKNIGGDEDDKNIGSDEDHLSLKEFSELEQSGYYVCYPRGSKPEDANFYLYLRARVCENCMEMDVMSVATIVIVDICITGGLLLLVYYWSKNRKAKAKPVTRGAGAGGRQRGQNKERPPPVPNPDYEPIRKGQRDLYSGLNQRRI
Nature of the assay: flow cytometry on Jurkat cells. How it is done: (§1) The binding of the CD19-TCB molecules prepared in Example 15 to human CD19- and CD3-expressing target cells was tested. Two CD19-expressing cell lines with different levels of CD19 expression were used. Nalm-6, an acute lymphoblastic leukemia (ALL) cell line with high CD 19 expression and Z-138 (Mantle cell lymphoma) with average expression levels. CD3-binding was assessed using immortalized T lymphocyte line (Jurkat cell line). Briefly, cells were harvested, counted, checked for viability and resuspended at 1×10⁶ cells/ml in FACS buffer (PBS+2% FCS+5 mM EDTA+0.25% sodium azide). […] Binding curves and the EC50 values related to binding were calculated using GraphPad Prism 7.
(A flow cytometer gives signals particle by particle.)

Assay [3] deals with T1, human CD19 on cells (Nalm-6, Z-138). Nature of the assay: flow cytometry on Nalm-6 cells. How it is done: as §1
For assay [4], the target named is T3, CD19 extracellular domain (ECD)-Fc fusion (human, UniProt P01857 104-328 = IgG part).
T3 construct: Monovalent CD19 ECD on a knob-into-hole Fc; also called CD19 antigen; recombinant human CD19
The assay can be described thus: SPR, TCB captured by anti-PG antibody, CD19 ECD-Fc as analyte, 25°C. The method, then: (§2) SPR experiments were performed, using the CD19-TCB molecules prepared in Example 15, on a Biacore T200 instrument at 25° C. with HBS-EP+ as running buffer (0.01 M HEPES pH 7.4, 0.15 M NaCl, 0.005% Surfactant P20 (GE Healthcare, #BR-1006-69)). Anti-PG antibody (see Example 3) was directly immobilized by amine coupling on a C1 chip (GE Healthcare). The different TCB molecules were captured at 25 nM. Three-fold dilution series (in HBS-EP from 0.14 to 100 nM) of the CD19 antigen (CD19 extracellular domain (ECD)-Fc fusion; see SEQ ID NOs 99 and 100) or the CD3 antigen (see Example 3, SEQ ID NOs 41 and 42) were passed over the ligand at 30 μl/min for 240 s to record the association phase. The dissociation phase was monitored for 1500 s (CD19 antigen) or 800 s (CD3 antigen)s and triggered by switching from the sample solution to HBS-EP+. The chip surface was regenerated after every cycle using two injections of 10 mM glycine pH 2.1 for 60 sec. Bulk refractive index differences were corrected for by subtracting the response obtained on the reference flow cell (without captured TCB). The affinity constants were derived from the kinetic rate constants by fitting to a 1:1 Langmuir binding using the Biaeval software (GE Healthcare). The measurement was performed with three independent dilution series.
For orientation: Surface plasmon resonance follows binding to a sensor surface in real time, without labels.

The target of assay [5] is T4, Human CD3ε stalk-Fc(knob)-Avi/CD3δ stalk-Fc(hole) (human).
T4 construct: Heterodimer of CD3 delta and CD3 epsilon ectodomains fused to human Fc with knob-into-hole; also called human CD3ε/δ; CD3 antigen
The assay can be described thus: SPR, TCB captured by anti-PG antibody, human CD3ε/δ-Fc as analyte, 25°C. How it is done:
as §2

B1: CD19-TCB, CD19(018) CD3orig (bispecific antibody, human IgG1, kappa, L234A L235A)
heavy 1: not shown
heavy 2: QVQLVQSGAEVKKPGASVKVSCKASGYTFTDYIMHWVRQAPGQGLEWMGYINPYNDGSKYTEKFQGRVTMTSDTSISTAYMELSRLRSDDTAVYYCARGTYYYGSALFDYWGQGTTVTVSSASTKGPSVFPLAPSSKSTSGGTAALGCLVEDYFPEPVTVSWNSGALTSGVHTFPAVLQSSGLYSLSSVVTVPSSSLGTQTYICNVNHKPSNTKVDEKVEPKSCDKTHTCPPCPAPEAAGGPSVFLFPPKPKDTLMISRTPEVTCVVVDVSHEDPEVKFNWYVDGVEVHNAKTKPREEQYNSTYRVVSVLTVLHQDWLNGKEYKCKVSNKALGAPIEKTISKAKGQPREPQVCTLPPSRDELTKNQVSLSCAVKGFYPSDIAVEWESNGQPENNYKTTPPVLDSDGSFFLVSKLTVDKSRWQQGNVFSCSVMHEALHNHYTQKSLSLSP
light 1: DIVMTQTPLSLSVTPGQPASISCKSSQSLENPNGNTYLNWYLQKPGQSPQLLIYRVSKRFSGVPDRFSGSGSGTDFTLKISRVEAEDVGVYYCLQLTHVPYTFGQGTKLEIKRTVAAPSVFIFPPSDRKLKSGTASVVCLLNNFYPREAKVQWKVDNALQSGNSQESVTEQDSKDSTYSLSSTLTLSKADYEKHKVYACEVTHQGLSSPVTKSFNRGEC
light 2: EVQLLESGGGLVQPGGSLRLSCAASGFTFSTYAMNWVRQAPGKGLEWVSRIRSKYNNYATYYADSVKGRFTISRDDSKNTLYLQMNSLRAEDTAVYYCVRHGNFGNSYVSWFAYWGQGTLVTVSSASVAAPSVFIFPPSDEQLKSGTASVVCLLNNFYPREAKVQWKVDNALQSGNSQESVTEQDSKDSTYSLSSTLTLSKADYEKHKVYACEVTHQGLSSPVTKSFNRGEC
notes: 2+1 IgG CrossFab, inverted; human IgG1 Fc, knob-into-hole, PGLALA
The term EC50 denotes the concentration at which the effect is half-maximal. Read a high EC50 as lower potency in that assay. A word on the Kd: it is the equilibrium constant for the complex coming apart. One may read the koff as the rate constant with which the complex falls apart. For orientation: kon means the second-order rate constant of association. In the case of B1, in assay [1], the “EC50 (pM) of tumor cell lysis, Nalm-6 target cells” value amounted to 0.3 pM and the “EC50 (pM) of tumor cell lysis, Z-138 target cells” value turned out to be 5.4 pM. The molecule also showed an EC50 in assay [2] of 115 nM. For the same molecule, the EC50 in assay [3] stood at 1.5 nM. In assay [4], this molecule displayed a Kd of 0.95 nM, a koff of 0.000316 s⁻¹, a kon of 333000 M⁻¹ s⁻¹ and a t1/2 of 36.6 min. Besides, in assay [5], the affinity, expressed as Kd, was 3.57 nM; the koff was determined as 0.00333 s⁻¹; the kon is 933000 M⁻¹ s⁻¹; the t1/2 came to 3.5 min.

B2: CD19-TCB, CD19(2B11) CD3 variant P035.093 (bispecific antibody, human IgG1, kappa, L234A L235A)
heavy 1: not shown
heavy 2: QVQLVQSGAEVKKPGASVKVSCKASGYTFTDYIMHWVRQAPGQGLEWMGYINPYNDGSKYTEKFQGRVTMTSDTSISTAYMELSRLRSDDTAVYYCARGTYYYGPQLFDYWGQGTTVTVSSASTKGPSVFPLAPSSKSTSGGTAALGCLVEDYFPEPVTVSWNSGALTSGVHTFPAVLQSSGLYSLSSVVTVPSSSLGTQTYICNVNHKPSNTKVDEKVEPKSCDKTHTCPPCPAPEAAGGPSVFLFPPKPKDTLMISRTPEVTCVVVDVSHEDPEVKFNWYVDGVEVHNAKTKPREEQYNSTYRVVSVLTVLHQDWLNGKEYKCKVSNKALGAPIEKTISKAKGQPREPQVCTLPPSRDELTKNQVSLSCAVKGFYPSDIAVEWESNGQPENNYKTTPPVLDSDGSFFLVSKLTVDKSRWQQGNVFSCSVMHEALHNHYTQKSLSLSP
light 1: DIVMTQTPLSLSVTPGQPASISCKSSQSLETSTGTTYLNWYLQKPGQSPQLLIYRVSKRFSGVPDRFSGSGSGTDFTLKISRVEAEDVGVYYCLQLLEDPYTFGQGTKLEIKRTVAAPSVFIFPPSDRKLKSGTASVVCLLNNFYPREAKVQWKVDNALQSGNSQESVTEQDSKDSTYSLSSTLTLSKADYEKHKVYACEVTHQGLSSPVTKSFNRGEC
light 2: EVQLLESGGGLVQPGGSLRLSCAASGFTFSSYAMNWVRQAPGKGLEWVSRIRSKYNNYATYYADSVKGRFTISRDDSKNTLYLQMNSLRAEDTAVYYCVRASNFPASYVSYFAYWGQGTLVTVSSASVAAPSVFIFPPSDEQLKSGTASVVCLLNNFYPREAKVQWKVDNALQSGNSQESVTEQDSKDSTYSLSSTLTLSKADYEKHKVYACEVTHQGLSSPVTKSFNRGEC
notes: as for B1
In assay [2], B2 had an EC50 of 22.3 nM. In assay [3], this molecule returned a concentration for a half-maximal effect (EC50) of 0.6 nM. In assay [4], this molecule registered a Kd of 0.32 nM, a koff of 0.000146 s⁻¹, a kon of 458000 M⁻¹ s⁻¹ and a t1/2 of 79.1 min. For the same molecule, in assay [5], the affinity, expressed as Kd, was 0.38 nM; the koff was 0.00135 s⁻¹; the kon is 3.56e+06 M⁻¹ s⁻¹; the t1/2 stood at 8.6 min.

B3: CD19-TCB, CD19(2B11) CD3orig (bispecific antibody, human IgG1, kappa, L234A L235A)
heavy 1: not shown
heavy 2: QVQLVQSGAEVKKPGASVKVSCKASGYTFTDYIMHWVRQAPGQGLEWMGYINPYNDGSKYTEKFQGRVTMTSDTSISTAYMELSRLRSDDTAVYYCARGTYYYGPQLFDYWGQGTTVTVSSASTKGPSVFPLAPSSKSTSGGTAALGCLVEDYFPEPVTVSWNSGALTSGVHTFPAVLQSSGLYSLSSVVTVPSSSLGTQTYICNVNHKPSNTKVDEKVEPKSCDKTHTCPPCPAPEAAGGPSVFLFPPKPKDTLMISRTPEVTCVVVDVSHEDPEVKFNWYVDGVEVHNAKTKPREEQYNSTYRVVSVLTVLHQDWLNGKEYKCKVSNKALGAPIEKTISKAKGQPREPQVCTLPPSRDELTKNQVSLSCAVKGFYPSDIAVEWESNGQPENNYKTTPPVLDSDGSFFLVSKLTVDKSRWQQGNVFSCSVMHEALHNHYTQKSLSLSP
light 1: DIVMTQTPLSLSVTPGQPASISCKSSQSLETSTGTTYLNWYLQKPGQSPQLLIYRVSKRFSGVPDRFSGSGSGTDFTLKISRVEAEDVGVYYCLQLLEDPYTFGQGTKLEIKRTVAAPSVFIFPPSDRKLKSGTASVVCLLNNFYPREAKVQWKVDNALQSGNSQESVTEQDSKDSTYSLSSTLTLSKADYEKHKVYACEVTHQGLSSPVTKSFNRGEC
light 2: EVQLLESGGGLVQPGGSLRLSCAASGFTFSTYAMNWVRQAPGKGLEWVSRIRSKYNNYATYYADSVKGRFTISRDDSKNTLYLQMNSLRAEDTAVYYCVRHGNFGNSYVSWFAYWGQGTLVTVSSASVAAPSVFIFPPSDEQLKSGTASVVCLLNNFYPREAKVQWKVDNALQSGNSQESVTEQDSKDSTYSLSSTLTLSKADYEKHKVYACEVTHQGLSSPVTKSFNRGEC
notes: as for B1
Consider B3, for which, in assay [1], the “EC50 (pM) of tumor cell lysis, Nalm-6 target cells” value was determined as 0.3 pM and the “EC50 (pM) of tumor cell lysis, Z-138 target cells” value worked out at 4.8 pM. The molecule further gave an EC50 in assay [2] of 203 nM. Also, a half-maximal response in assay [3] (EC50) required 0.7 nM. In assay [4], the Kd is 0.4 nM, the koff was 0.000176 s⁻¹, the kon turned out to be 434000 M⁻¹ s⁻¹ and the t1/2 is 65.6 min. In assay [5], this molecule showed a Kd of 3.36 nM, a dissociation rate constant (koff) of 0.00378 s⁻¹, a kon of 1.13e+06 M⁻¹ s⁻¹ and a t1/2 of 3.1 min.
